Measured values: US20210139608

System: T1, MMP2-cleavable peptide linker CGPLGVRGG within the MAP-Ab conjugate (imuGlue)
T1 sequence: CGPLGVRGG

MMP2 (matrix metalloproteinase-2)
cumulative Ab release profile from MAP-Ab in the presence of MMP2: the imuGlue may release 75% of Ab sprayed for 24 hours in the presence of MMP2
emission spectrum of MAP-Ab with or without MMP2: when MMP2 treatment was carried out, a blue shift was observed in the MAP-Ab emission spectrum
